Data from patent US20250152742A1, “COMPOSITIONS AND METHODS FOR NEUROLOGICAL DISEASES” (Trames Bio, Inc., priority 2022, published 2025).

Test system: engineered chimeric receptor SEQ ID NO: 33 and its mutants (human α7-nAChR ligand binding domain / human GlyRα1 ion pore domain) in Lenti-X 293T cells
Test: YFP fluorescence quenching anion reporter plate reader assay (percent quench, EC50)
Format: cell-based
Settings: for YFP fluorescence quenching using CNL001 (percent quench): receptor named in row; for YFP fluorescence quenching using Varenicline, 3 nM var: ligand Varenicline 3 nM; for YFP fluorescence quenching using Varenicline, 30 nM var: ligand Varenicline 30 nM; for YFP fluorescence quenching using Varenicline, 300 nM var: ligand Varenicline 300 nM; for YFP fluorescence quenching using Varenicline, 500 nM var: ligand Varenicline 500 nM; for YFP fluorescence quenching using Varenicline, 1 uM var: ligand Varenicline 1 uM
How it was run: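 Percent quench compares mean YFP signal over the final 10 s with the 15 s baseline before ligand, added in iodide-containing extracellular solution (pH 7.2). Cells were LX293T carrying a YFP anion reporter, transiently transfected with the channel construct; plates were preincubated 30 min at 37 °C.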

[1] = 1 nM CNL001, first column so headed
[2] = 1 nM CNL001, second column so headed
[3] = 10 nM CNL001, first column so headed
[4] = 10 nM CNL001, second column so headed
[5] = 50 nM CNL001, first column so headed
[6] = 50 nM CNL001, second column so headed
[7] = 100 nM CNL001, first column so headed
[8] = 100 nM CNL001, second column so headed
[9] = 1 uM CNL001, first column so headed
[10] = 1 uM CNL001, second column so headed

| Molecule | YFP fluorescence quenching using CNL001 (percent quench) [1] [%] | YFP fluorescence quenching using CNL001 (percent quench) [2] [%] | YFP fluorescence quenching using CNL001 (percent quench) [3] [%] | YFP fluorescence quenching using CNL001 (percent quench) [4] [%] | YFP fluorescence quenching using CNL001 (percent quench) [5] [%] | YFP fluorescence quenching using CNL001 (percent quench) [6] [%] | YFP fluorescence quenching using ABT-126 (percent quench) (50 nM abt (ABT-126)) [%] | YFP fluorescence quenching using CNL001 (percent quench) [7] [%] | YFP fluorescence quenching using CNL001 (percent quench) [8] [%] | YFP fluorescence quenching using ABT-126 (percent quench) (100 nM abt (ABT-126)) [%] | YFP fluorescence quenching using ABT-126 (percent quench) (300 nM abt (ABT-126)) [%] | YFP fluorescence quenching using CNL001 (percent quench) [9] [%] | YFP fluorescence quenching using CNL001 (percent quench) [10] [%] | YFP fluorescence quenching using ABT-126 (percent quench) (1 uM abt (ABT-126)) [%] | YFP fluorescence quenching (percent quench) (100 uM ach (acetylcholine)) [%] | YFP fluorescence quenching (percent quench) (300 uM ach (acetylcholine)) [%] | YFP fluorescence quenching (percent quench) (1 mM ach (acetylcholine)) [%] | YFP fluorescence quenching (percent quench) (3 mM ach (acetylcholine)) [%] | also measured |
| --- | --- | --- | --- | --- | --- | --- | --- | --- | --- | --- | --- | --- | --- | --- | --- | --- | --- | --- | --- |
| CODA1056: engineered receptor: R101F, Y115E, Y210W in SEQ ID NO: 33 (protein, synthetic sequence of chimeric LGIC) MRCSPGGVWLALAASLLHVSLQGEFQRKLYKELVKNYNPLERPVANDSQPLTVYFSLSLLQIMDVDEKNQVLTTNIWLQMSWTDHYLQWNVSEYPGVKTVFFPDGQIWKPDILLENSADERFDATFHTNVLVNSSGHCQYLPPGIFKSSCPMDLKNFPMDVQTCKLKFGSWSYGGWSLDLQMQEADISGYIPNGEWDLVGIPGKRSERFWECCKEPYPDVTFTVTMRRRMGYYLIQMYIPSLLIVILSWISFWINMDAAPARVGLGITTVLTMTTQSSGSRASLPKVSYVKAIDIWMAVCLLFVFSALLEYAAVNFVSRQHKELLRFRRKRRHHKSPMLNLFQEDEAGEGRFNFSAYGMGPACLQAKDGISVKGANNSNTTNPPPAPSKSPEEMRKLFIQRAKKIDKISRIGFPMAFLIFNMFYWIIYKIVRREDVHNQ | −8.104 | −12.153 | −10.462 | −4.735 | −8.617 | −1.606 | −20.96 | −1.243 | 1.838 | −21.95 | −10.96 | −0.567 | 4.663 | 10.79 | −20.55 | −19.32 | −14.08 | 14.07 | YFP fluorescence quenching using TC-5619/Bradanicline (percent quench) (1 nM brd (TC-5619/Bradanicline)): −7.894%; YFP fluorescence quenching using TC-5619/Bradanicline (percent quench) (3 nM brd (TC-5619/Bradanicline)): −11.812%; YFP fluorescence quenching using TC-5619/Bradanicline (percent quench) (10 nM brd (TC-5619/Bradanicline)): 36.211%; YFP fluorescence quenching using TC-6683 (percent quench) (30 nM TC-6683): −19.889%; YFP fluorescence quenching using TC-5619/Bradanicline (percent quench) (30 nM brd (TC-5619/Bradanicline)): 40.624%; YFP fluorescence quenching using TC-5619/Bradanicline (percent quench) (100 nM brd (TC-5619/Bradanicline)): 65.869%; YFP fluorescence quenching using TC-6683 (percent quench) (300 nM TC-6683): −22.443%; YFP fluorescence quenching using TC-5619/Bradanicline (percent quench) (300 nM brd (TC-5619/Bradanicline)): 59.661%; YFP fluorescence quenching using TC-6683 (percent quench) (3 uM TC-6683): −12.623%; YFP fluorescence quenching using TC-6683 (percent quench) (30 uM TC-6683): −10.728%; YFP fluorescence quenching using TC-6683 (percent quench) (100 uM TC-6683): −10.959%; YFP fluorescence quenching (percent quench) (500 uM ach (acetylcholine)): −19.75%; YFP fluorescence quenching (percent quench) (10 mM ach (acetylcholine)): 25.7% |
| CODA1138: engineered receptor: W77F, R101F, L131D in SEQ ID NO: 33 (protein, synthetic sequence of chimeric LGIC) MRCSPGGVWLALAASLLHVSLQGEFQRKLYKELVKNYNPLERPVANDSQPLTVYFSLSLLQIMDVDEKNQVLTTNIFLQMSWTDHYLQWNVSEYPGVKTVFFPDGQIWKPDILLYNSADERFDATFHTNVDVNSSGHCQYLPPGIFKSSCPMDLKNFPMDVQTCKLKFGSWSYGGWSLDLQMQEADISGYIPNGEWDLVGIPGKRSERFYECCKEPYPDVTFTVTMRRRMGYYLIQMYIPSLLIVILSWISFWINMDAAPARVGLGITTVLTMTTQSSGSRASLPKVSYVKAIDIWMAVCLLFVFSALLEYAAVNFVSRQHKELLRFRRKRRHHKSPMLNLFQEDEAGEGRFNFSAYGMGPACLQAKDGISVKGANNSNTTNPPPAPSKSPEEMRKLFIQRAKKIDKISRIGFPMAFLIFNMFYWIIYKIVRREDVHNQ | −6.175 | 5.89 | −2.032 | 7.601 | 9.263 | 4.423 | −11.71 | 24 | 30.448 | −5.13 | 15.09 | 73.823 | 73.271 | 56.63 | −19.35 | −14.79 | 37.5 | 61.73 | YFP fluorescence quenching (percent quench) (1 nM CNL002): −2.209%; YFP fluorescence quenching (percent quench) (10 nM CNL002): 43.044%; YFP fluorescence quenching (percent quench) (50 nM CNL002): 73.418%; YFP fluorescence quenching (percent quench) (100 nM CNL002): 81.66%; YFP fluorescence quenching (percent quench) (1 uM CNL002): 81.69%; YFP fluorescence quenching using ABT-126 (percent quench) (10 uM abt (ABT-126)): 75.93%; YFP fluorescence quenching (percent quench) (10 uM ach (acetylcholine)): −12.92%; YFP fluorescence quenching (percent quench) (30 uM ach (acetylcholine)): −15.36%; YFP fluorescence quenching using Varenicline, 3 nM var (first column): 3.893; YFP fluorescence quenching using Varenicline, 3 nM var (second column): 1.107; YFP fluorescence quenching using Varenicline, 30 nM var (first column): 0.972; YFP fluorescence quenching using Varenicline, 30 nM var (second column): 0.872; YFP fluorescence quenching using Varenicline, 300 nM var (first column): 2.282; YFP fluorescence quenching using Varenicline, 300 nM var (second column): −0.288; YFP fluorescence quenching using Varenicline, 500 nM var (first column): 3.637; YFP fluorescence quenching using Varenicline, 500 nM var (second column): −1.804; YFP fluorescence quenching using Varenicline, 1 uM var (first column): −1.84; YFP fluorescence quenching using Varenicline, 1 uM var (second column): 6.36 |
